Data: publication PMC8080067, “Tight binding of cytochrome b5 to cytochrome P450 17A1 is a critical feature of stimulation of C21 steroid lyase activity and androgen synthesis” (The Journal of Biological Chemistry, 2021)

Columns and labels:
WT P450 17A1 = molecular target: T1, WT P450 17A1 (Homo sapiens, UniProt P05093); format: biochemical; set-up: made in house; host or cells: Escherichia coli (P450 17A1 in JM109)
T1 sequence (P05093 1-508): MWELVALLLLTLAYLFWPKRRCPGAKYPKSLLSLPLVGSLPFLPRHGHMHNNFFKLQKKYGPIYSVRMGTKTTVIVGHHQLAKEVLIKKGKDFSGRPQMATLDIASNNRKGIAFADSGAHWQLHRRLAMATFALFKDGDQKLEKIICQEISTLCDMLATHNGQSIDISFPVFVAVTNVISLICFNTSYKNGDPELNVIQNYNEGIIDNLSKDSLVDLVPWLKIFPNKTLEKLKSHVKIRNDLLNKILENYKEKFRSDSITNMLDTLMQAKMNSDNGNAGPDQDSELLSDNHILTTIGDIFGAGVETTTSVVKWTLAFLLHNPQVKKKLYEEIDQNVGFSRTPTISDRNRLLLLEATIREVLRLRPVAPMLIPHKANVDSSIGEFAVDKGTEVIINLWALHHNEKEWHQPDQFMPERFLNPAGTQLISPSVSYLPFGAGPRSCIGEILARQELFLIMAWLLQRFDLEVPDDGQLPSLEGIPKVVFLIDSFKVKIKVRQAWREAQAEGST
Procedure: Figure S4. Stimulation of lyase activities by b5, T70C- b5, and NanoTemper Blue-T70C-b5. Catalytic assays for the lyase reactions were performed and analyzed as described in the main text.

P450 17A1 = system: P450 17A1; set-up: method as in PMID 30468857; settings: SPR; cited from earlier work
P450 17A1 R347H variant = molecular target: T2, P450 17A1 R347H variant (Homo sapiens, UniProt P05093, R347H)
T2 sequence (P05093 1-508 R347H): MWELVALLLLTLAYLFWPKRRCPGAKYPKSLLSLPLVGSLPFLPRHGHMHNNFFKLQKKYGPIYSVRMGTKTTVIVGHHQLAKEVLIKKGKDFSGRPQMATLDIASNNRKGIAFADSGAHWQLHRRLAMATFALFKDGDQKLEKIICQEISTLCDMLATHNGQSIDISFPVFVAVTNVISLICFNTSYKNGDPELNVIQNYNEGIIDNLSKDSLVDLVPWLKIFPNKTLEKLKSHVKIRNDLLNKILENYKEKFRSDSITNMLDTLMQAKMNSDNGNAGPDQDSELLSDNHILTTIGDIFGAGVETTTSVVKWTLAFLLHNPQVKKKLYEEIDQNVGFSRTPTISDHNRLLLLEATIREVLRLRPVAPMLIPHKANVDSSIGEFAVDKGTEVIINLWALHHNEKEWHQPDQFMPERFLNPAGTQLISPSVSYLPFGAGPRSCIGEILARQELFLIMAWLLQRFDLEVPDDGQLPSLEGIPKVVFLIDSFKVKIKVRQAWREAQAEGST
Procedure: (§1) P450 catalytic activity assays to measure steroid hydroxylation and lyase reactions were carried out as described previously ([23], [37], [64]).
(§2) The reactions were initiated by adding an NADPH-regenerating system (final concentrations of 15 mM glucose 6-phosphate, 1.5 mM NADP^+, and 1 IU ml^−1 glucose 6-phosphate dehydrogenase) ([75]) and terminated by quenching and extracting with 2.0 ml CH2Cl2. Aliquots of the organic phases were dried and then dissolved in 100 μl of a CH3CN/H2O (1:1, v/v) mixture. […] The extraction procedure was then repeated, and the (Δ^4) reaction products were analyzed in a Waters Acquity UPLC system using a BEH C18 octadecylsilane column (2.1 mm × 100 mm, 1.7 μm). The reaction products were resolved using a mobile phase composed of solvents A (70% CH3OH, 30% H2O, v/v) and B (CH3CN), at a flow rate of 0.2 ml min^−1. The mobile phase linear gradient proceeded as follows: 0 to 1 min, 5% B; 4 min, 30% B; 4.5 min, 40% B; 4.55 to 6.75 min, 95% BA; and 7 to 10 min, 5% B. The reaction products were identified by coelution with commercial standards and quantified by the A243 peak areas. Steady-state kinetic parameters were estimated using nonlinear regression of hyperbolic fits in GraphPad Prism software, with equations used for kcat and the specificity constant kcat/Km ([76]): Y = (ksp ∗ X)/(1 + (ksp ∗ X/kcat)) and then deriving Km by division.

P450 17A1 R358Q variant = molecular target: T3, P450 17A1 R358Q variant (Homo sapiens, UniProt P05093, R358Q)
T3 sequence (P05093 1-508 R358Q): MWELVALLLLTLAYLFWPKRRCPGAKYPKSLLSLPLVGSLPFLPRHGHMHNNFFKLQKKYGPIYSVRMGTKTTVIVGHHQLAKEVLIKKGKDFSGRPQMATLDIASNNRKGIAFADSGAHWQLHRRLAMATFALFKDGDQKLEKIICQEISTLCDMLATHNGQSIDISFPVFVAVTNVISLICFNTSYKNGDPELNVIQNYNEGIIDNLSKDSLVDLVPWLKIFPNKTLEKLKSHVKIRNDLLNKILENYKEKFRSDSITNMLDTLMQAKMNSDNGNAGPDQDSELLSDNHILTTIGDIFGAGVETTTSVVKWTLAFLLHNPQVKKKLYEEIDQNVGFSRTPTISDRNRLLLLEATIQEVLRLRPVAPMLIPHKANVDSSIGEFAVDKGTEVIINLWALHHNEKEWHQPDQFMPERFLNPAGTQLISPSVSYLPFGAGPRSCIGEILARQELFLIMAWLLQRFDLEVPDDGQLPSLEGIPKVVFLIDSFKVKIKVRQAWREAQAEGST
Procedure: as §1, §2

B1: b5: recombinant human cytochrome b5, unlabeled (protein)
chain: MAEQSDEAVKYYTLEEIQKHNHSKSTWLILHHKVYDLTKFLEEHPGGEEVLREQAGGDATENFEDVGHSTDAREMSKTFIIGELHPDDRPKLNKPPETLITTIDSSSS
- stimulation of lyase activities (WT P450 17A1): stimulated by b5 in a concentration-dependent manner
- on-rate constants (P450 17A1): 360 to 5000 M⁻¹ s⁻¹
- stimulation of lyase reactions (P450 17A1 R347H variant): did not display b5 concentration-dependent stimulation
- stimulation of lyase reactions (P450 17A1 R358Q variant): did not display b5 concentration-dependent stimulation
